Biological target: human plasma-derived FIXa (Haematologic Technologies Inc) (human) (UniProt P00740)
Assay: cell-based or functional assay

human plasma-derived FIXa (Haematologic Technologies Inc) (human), sequence (P00740 47-191, chain 1 of 2): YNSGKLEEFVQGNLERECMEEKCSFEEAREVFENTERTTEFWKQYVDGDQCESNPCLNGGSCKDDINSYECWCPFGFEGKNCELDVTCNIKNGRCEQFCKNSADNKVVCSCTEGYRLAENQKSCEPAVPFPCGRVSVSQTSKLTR
human plasma-derived FIXa (Haematologic Technologies Inc) (human), sequence (P00740 227-461, chain 2 of 2): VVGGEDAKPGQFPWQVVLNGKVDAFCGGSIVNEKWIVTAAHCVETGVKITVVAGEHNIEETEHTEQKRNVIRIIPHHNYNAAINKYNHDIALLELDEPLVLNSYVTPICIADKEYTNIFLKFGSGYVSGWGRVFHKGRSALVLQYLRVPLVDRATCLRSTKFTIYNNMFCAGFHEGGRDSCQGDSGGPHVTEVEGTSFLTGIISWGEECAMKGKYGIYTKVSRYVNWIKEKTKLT

ACE910 (bispecific antibody)
Maximum stimulation (fold), at 15300 nM BiAb: 808 fold
